# Measured values reported in paper PMC6994217 (Science Advances, 2020).
# Square brackets hold non-standard residues; d marks the D form. pY = N[C@@H](Cc1ccc(OP(=O)(O)O)cc1)C(=O)O
# T1: C-terminal SH2 domain of SHP2 (SHP2^106–220) (human, UniProt Q06124-2 106-220)
# T1 sequence: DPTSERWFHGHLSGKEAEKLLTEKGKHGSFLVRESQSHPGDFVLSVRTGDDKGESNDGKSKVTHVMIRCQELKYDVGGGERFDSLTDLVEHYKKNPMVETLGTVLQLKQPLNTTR
# T2: N-terminal SH2 domain of SHP2 (SHP2^1–105) (human, UniProt Q06124-2 1-105)
# T2 sequence: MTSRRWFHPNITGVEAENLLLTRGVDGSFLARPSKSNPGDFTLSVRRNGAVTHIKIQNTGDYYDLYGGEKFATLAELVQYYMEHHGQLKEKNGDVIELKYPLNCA
# What was measured:
# [1] = biological target: SHP2^1–220 (tandem SH2, both SH2 domains) (human) (UniProt Q06124); assay: NMR DOSY
# [2] = biological target: SHP2^1–220 (tandem SH2, both SH2 domains) (human) (UniProt Q06124); assay: SEC-MALS
# [3] = biological target: T1, C-terminal SH2 domain of SHP2 …; assay: ITC
# [4] = biological target: T2, N-terminal SH2 domain of SHP2 …; assay: ITC
Molecule,stoichiometry N (peptide per protein) [1],stoichiometry N (peptide per protein) [2],Kd [3] [nM],Kd [4] [nM]
"diphosphorylated bidentate peptide ITIM-[dPEG4]2-ITSM, Ac-FSVD(pY)GELDFQ-(dPEG4)-(dPEG4)-EQTE(pY)ATIVFP-NH2",1,–,–,–
"diphosphorylated bidentate peptide ITSM-[dPEG4]2-ITSM, Ac-EQTE(pY)ATIVFP-(dPEG4)-(dPEG4)-EQTE(pY)ATIVFP-NH2",–,1,–,–
"Ac-EQTE[pY]ATIVFP-NH2 (SMILES CC[C@H](C)[C@H](NC(=O)[C@@H](NC(=O)[C@H](C)NC(=O)[C@H](Cc1ccc(OP(=O)(O)O)cc1)NC(=O)[C@H](CCC(=O)O)NC(=O)[C@@H](NC(=O)[C@H](CCC(N)=O)NC(=O)[C@H](CCC(=O)O)NC(C)=O)[C@@H](C)O)[C@@H](C)O)C(=O)N[C@H](C(=O)N[C@@H](Cc1ccccc1)C(=O)N1CCC[C@H]1C(N)=O)C(C)C) [PD-1 ITSM phosphopeptide, Ac-EQTE(pY)ATIVFP-NH2]",–,–,13,167
"Ac-FSVD[pY]GELDFQ-NH2 (SMILES CC(=O)N[C@@H](Cc1ccccc1)C(=O)N[C@@H](CO)C(=O)N[C@H](C(=O)N[C@@H](CC(=O)O)C(=O)N[C@@H](Cc1ccc(OP(=O)(O)O)cc1)C(=O)NCC(=O)N[C@@H](CCC(=O)O)C(=O)N[C@@H](CC(C)C)C(=O)N[C@@H](CC(=O)O)C(=O)N[C@@H](Cc1ccccc1)C(=O)N[C@@H](CCC(N)=O)C(N)=O)C(C)C) [PD-1 ITIM phosphopeptide, Ac-FSVD(pY)GELDFQ-NH2]",–,–,26400,1900
